In PMC13376213, “Systematic discovery of motif-based interactions of the auxiliary domains of USP family deubiquitinases” (Nature Communications, 2026):

Biological target: USP11 DUSP-UBL tandem domain (human) (UniProt P51784)
Assay: fluorescence polarisation; displacement: serial dilution of the unlabelled peptide against the domain (at two-fold the KD of the FITC-labelled peptide) in complex with 10 nM FITC-labelled peptide; 50 mM phosphate buffer pH 7.4; room temperature; three technical replicates; sigmoidal dose-response fit

Sequence of USP11 DUSP-UBL tandem domain (human) (P51784 whole entry, the tested form may be a part): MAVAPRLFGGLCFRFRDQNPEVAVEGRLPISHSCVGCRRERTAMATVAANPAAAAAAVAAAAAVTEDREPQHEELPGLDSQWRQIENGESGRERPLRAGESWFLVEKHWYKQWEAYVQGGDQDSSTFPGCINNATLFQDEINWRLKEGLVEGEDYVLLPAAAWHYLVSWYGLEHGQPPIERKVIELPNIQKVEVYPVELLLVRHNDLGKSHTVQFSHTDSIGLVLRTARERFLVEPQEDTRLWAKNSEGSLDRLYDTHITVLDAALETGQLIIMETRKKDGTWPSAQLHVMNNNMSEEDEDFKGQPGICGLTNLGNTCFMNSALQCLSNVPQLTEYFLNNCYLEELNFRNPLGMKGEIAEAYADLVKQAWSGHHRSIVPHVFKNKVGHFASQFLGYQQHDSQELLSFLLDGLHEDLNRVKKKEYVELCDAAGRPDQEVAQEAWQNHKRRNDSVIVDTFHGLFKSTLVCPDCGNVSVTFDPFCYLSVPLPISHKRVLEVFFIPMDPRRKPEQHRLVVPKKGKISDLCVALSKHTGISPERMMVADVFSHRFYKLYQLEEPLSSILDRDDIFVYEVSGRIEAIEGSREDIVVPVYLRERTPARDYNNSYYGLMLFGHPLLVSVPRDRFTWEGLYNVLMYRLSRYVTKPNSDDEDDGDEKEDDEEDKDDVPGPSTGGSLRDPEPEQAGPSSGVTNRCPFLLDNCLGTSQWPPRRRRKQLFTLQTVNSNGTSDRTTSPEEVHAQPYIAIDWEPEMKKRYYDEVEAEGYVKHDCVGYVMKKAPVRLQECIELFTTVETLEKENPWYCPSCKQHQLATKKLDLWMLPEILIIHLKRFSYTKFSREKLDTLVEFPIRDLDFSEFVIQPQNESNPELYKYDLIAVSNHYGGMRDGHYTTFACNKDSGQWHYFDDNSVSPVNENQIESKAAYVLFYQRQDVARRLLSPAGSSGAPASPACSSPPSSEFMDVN

- Kd: 207 µM
Binder: Ac-SAVTYPDWIGQSYSEV-NH2 [ORAI1 48-63 peptide, unlabelled]
